For one experiment, the target named is T1, mouse IL-2Rγ (mouse) (UniProt P34902).
T1 sequence (looked up): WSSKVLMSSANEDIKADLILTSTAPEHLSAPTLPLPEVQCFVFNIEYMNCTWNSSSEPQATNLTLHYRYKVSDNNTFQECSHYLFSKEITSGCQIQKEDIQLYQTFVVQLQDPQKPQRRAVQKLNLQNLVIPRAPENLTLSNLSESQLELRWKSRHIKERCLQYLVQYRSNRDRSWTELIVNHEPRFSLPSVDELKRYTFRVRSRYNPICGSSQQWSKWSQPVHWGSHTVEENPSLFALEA
The experiment can be described thus: PE binding ELISA, periplasmic extract on coated protein. In general terms: ELISA stands for enzyme-linked immunosorbent assay.

The target in the next experiment is T2, mouse IL-2Rβ (mouse) (UniProt P16297).
T2 sequence (looked up): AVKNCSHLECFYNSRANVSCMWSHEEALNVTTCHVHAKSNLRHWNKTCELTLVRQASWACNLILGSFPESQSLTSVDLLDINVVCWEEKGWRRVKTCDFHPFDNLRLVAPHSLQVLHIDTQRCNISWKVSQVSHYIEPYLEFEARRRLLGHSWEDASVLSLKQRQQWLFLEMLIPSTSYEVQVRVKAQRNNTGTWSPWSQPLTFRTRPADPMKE
The experiment can be described thus: P.E. binding ELISA on coated protein.

B1: 32-MP04A08 (VHH)
VHH: QVQLVESGGGLVQAGGSLRLSCAASGRTFGSTAVGWFRQVPGKEREFVSAINRSGSATTYADSVKGRFTISRDNAKNTVYLQMNSLTPEDTGVYYCAADSLPYGRPYYFQRSAGEYDYWGQGTQVTVSS
As to B1, the OD (PE binding ELISA) with mouse IL-2Rγ (mouse) stood at 0.05 OD450 nm.

B2: FJ1427_P035MP03G10 (VHH)
VHH: QVQLVESGGGLVQAGGSLRLSCAASGRSYAMGWFRQAPGKEREFVAAISWSASSTYYSESVKGRFTISRENAKNTVYLQMNSLKPEDTAVYYCAVRASPFVAGSYDPSDDPADYGSWGQGTQVIVSS
Consider B2, for which, in the experiment with mouse IL-2Rβ (mouse), the P.E. binding ELISA OD worked out at 0.048 OD450 nm.

B3: FJ1427 P035MP03F11 (VHH)
VHH: QVQLVESGGGLAQAGGSLRLSCAASGRTFSQDAKAWFRQAPGKEREFVAAITWSGRDTDYADSVKGRFTIARDNAKNTVYLQMDSLKPEDTAVYYCAVYPQGTIGPYFRSSNHYDYWGQGTQVTVSS
As to B3, the P.E. binding ELISA OD with mouse IL-2Rβ (mouse) was 0.048 OD450 nm.

B4: 30-MP04C03 (VHH)
VHH: EVQLVESGGGWVQDGGSLRLSCALSGRTFVRGIMGWFRQAPGKEREFVARIIWHINSTRYADSVKGRFTISRDSAKNTMYLQMDSLRPEDTAVYYCAARDRYGSGNSLSPSAYDYWGQGTQVTVSS
Molecule B4 gave an OD (PE binding ELISA) with mouse IL-2Rγ (mouse) of 0.048 OD450 nm.

B5: FJ1427 P035MP03D11 (VHH)
VHH: QVQLVESGGGLVQAGGSLRLSCAASGRTFSTTDVGWFRQAPGKEREFVAAITWSSHSTLYADSVEGRFTVTRENAKNTVYLQMNSLKPEDTAVYYCAAVRRGWAVVRTEGAYDFWGQGTQVTVSA
As to B5, in the experiment with mouse IL-2Rβ (mouse), the P.E. binding ELISA OD amounted to 0.049 OD450 nm.

B6: FJ1427_P035MP03H09 (VHH)
VHH: QVQLVESGGGLVQAGGSLRLSCAASGSIFSINAMGWFRQAPGKEREFVAAISRSGGSTAYVDSVKGRFTISRDNSKNMVHLQMNSLKSEDEAVYYCAATAAVGWTSRWITTDFDSWGQGTQVTVSS
In the case of B6, the P.E. binding ELISA OD in the experiment with mouse IL-2Rβ (mouse) came to 0.052 OD450 nm.

B7: FJ1427_P035MP03B09 (VHH)
VHH: QVQLVESGGGLVQAGGSLRLSCVVSGDVFVRYTMAWFRQAPGKEREFVTSITDSGRTTEYVDSVKGRFTVSRDNAKNTVYLQMNNLKPEDTAVYYCAANTDYFRIRSLDANTWGQGTQVTVSS
B7 had a P.E. binding ELISA OD with mouse IL-2Rβ (mouse) of 0.046 OD450 nm.

B8: FJ1427 P035MP03B10 (VHH)
VHH: QVQLVESGGGLVQAGGSLRLSCVVSGDVFVRYTMAWFRQAPGKEREFVAVVTDSGRTTEYVDSVKGRFTVSRDNAKNTVYLQMNNLKPEDTAVYYCAANTDYFQIRSVDNNAWGQGTQVTVSS
For the molecule B8, the P.E. binding ELISA OD with mouse IL-2Rβ (mouse) is 0.05 OD450 nm.

B9: FJ1427_P035MP06B02 (VHH)
VHH: QVQLVESGGGLVQAGGSLRLSCVVSGDVFVRYTMAWFRQAPGKEREFVAAVTDSGRTTEYVDSVKGRFTVSRDNAKNTVYLQMNNLKPEDTAVYYCAANTDYFQIRSVDNNAWGQGTQVTVSS
In the case of B9, in the experiment with mouse IL-2Rβ (mouse), the P.E. binding ELISA OD was 0.048 OD450 nm.

B10: FJ1427_P035MP03E11 (VHH)
VHH: EVQLVESGGGLVQAGGSLRLSCVVSGDVFVRYTMAWFRQAPGKEREFVAAVTDSGRTTEYVDSVKGRFTVSRDNAKNTVYLQMNNLEPEDTAVYYCAANTDYFQIRSVDNNAWGQGTQVTVSS
For B10, the P.E. binding ELISA OD with mouse IL-2Rβ (mouse) was 0.05 OD450 nm.

B11: FJ1427_P035MP03G09 (VHH)
VHH: QVQLVESGGGLVQAGGSLRLSCVVSGDVFVRYTMAWFRQAPGKEREFVAVVTDSGRTTEYVDSVKGRFTVSRDNAKNTVYLQMNNLKPEDTAVYYCAANTDYFQIRSVDNNAWGQGTQVTVSS
B11 had a P.E. binding ELISA OD with mouse IL-2Rβ (mouse) of 0.054 OD450 nm.

B12: FJ1427_P035MP04B02 (VHH)
VHH: QVQLVESGGGWVQVGESLRLSCAPSGRTFVSGIMGWFRQTPGKEREFVARIILNNNSTRYTDSVKGRFTISRDSAKNTMYLQMNTLRPEDTAVYYCAARDRYGSGNSLSPSAYDYWGQGTQVTVSS
As to B12, the OD (PE binding ELISA) with mouse IL-2Rγ (mouse) worked out at 0.048 OD450 nm.

B13: FJ1427 P035MP03C08 (VHH)
VHH: EVQLVESGGGLVQAGGSLRLACALSGDVFVRYTMAWFRQAPGKEREFVASVTDSGRTTDYVASVQGRFTVSRDNNKNTVYLQMNSLKPEDTAVYYCAANTDYFQIRSLDRNTWGQGTQVTVSS
In turn, B13 registered a P.E. binding ELISA OD in the experiment with mouse IL-2Rβ (mouse) of 0.054 OD450 nm.

B14: FJ1427 P035MP03B12 (VHH)
VHH: EVQLVESGGGLVQAGGSLRLSCAASGDVFVRYTMAWFRQAPGKEREFVAAVTDSGRTADYVDSVKGRFTVSRDNAKNTVYLQMNNLKPEDTAVYYCAANTDYFQIRSLDRNTWGQGTQVTVSS
On to B14, for which, in the experiment with mouse IL-2Rβ (mouse), the P.E. binding ELISA OD came to 0.049 OD450 nm.

B15: FJ1427 P035MP03B11 (VHH)
VHH: EVQLVESGGGLVQAGGSLRLACALSGDVFVRYTMAWFRQAPGKEREFVASVTDSGRTTDYVASVQGRFTVSRDNNKNTVYLQMNSLKPEDTAVYYCAANTDYFQIRSLDRNTWGQGTQVTVSS
B15 gave a P.E. binding ELISA OD in the experiment with mouse IL-2Rβ (mouse) of 0.052 OD450 nm.

B16: FJ1427 P035MP03C12 (VHH)
VHH: QVQLVESGGGLVQAGGSLRLSCAASGRAFSTYSMGWFRQTPGKEREFVAIISESGGIIDYGDSVKGRFTLSRDNAKNTVSLQMSSLQPEDTAVYYCAAARDWFARTAYQYDYWGQGTQVTVSA
Regarding B16, the P.E. binding ELISA OD in the experiment with mouse IL-2Rβ (mouse) is 0.047 OD450 nm.

B17: 35-MP07G01 (VHH)
VHH: QVQLQESGGGLVQGGGSLRLSCAASGGIFSSYAMGWFRQAPGKEREFVAAISRSGRSTNYADSVKGRFTISRDNAKSTVYLQMNSLKPEETAVYYCAAGRYYNSAYDPSPGDFGSWGHGTQVTVSS
Consider B17, for which the OD (PE binding ELISA) in the experiment with mouse IL-2Rγ (mouse) was found to be 0.045 OD450 nm.

B18: 27-MP04G01 (VHH)
VHH: QVQLVESGGGLVQAGGSLTLSCAAPGRTFGTDVVGWFRQAPGKEREFVASISRSGDGIYYDDSVKGRFTISRNNAWNTVNLQMNSLKVEDTAVYYCAAGDGWSTYDYWGQGTQVTVSS
In the experiment with mouse IL-2Rγ (mouse), B18 gave an OD (PE binding ELISA) of 0.048 OD450 nm.

B19: FJ1427_P035MP04C01 (VHH)
VHH: QVQLVESGGGLVQAGGSLTLSCAASGRTFSTDVVGWFRQAPGKEREFVASISRSGDGIYYDDSVKGRFTISRNNAWNTVNLQMNNLKVEDTAVYYCAAGDGWSTYDYWGQGTQVTVSS
Consider B19, for which the OD (PE binding ELISA) with mouse IL-2Rγ (mouse) came to 0.049 OD450 nm.

B20: FJ1427_P035MP03E10 (VHH)
VHH: EVQLVESGGGLVQPGGSLRLSCAASGFTFRNYAMSWVRQAPGKGLEWVGGITGEGLGTIYQDSVEGRFTISRNNAKNTLYLQMNSLRSEDTAVYYCTKMASGTLFRDKPYEYTSRGQGTQVTVSS
Regarding B20, the P.E. binding ELISA OD with mouse IL-2Rβ (mouse) turned out to be 0.048 OD450 nm.

B21: FJ1427 P035MP03C10 (VHH)
VHH: QVQLVESGGGLVQAGGSLRLSCAASGRTFSTTEMGWFRQAPGKEREFVAAITWTGRGTMYAESVEGRFTISRENAKNMVYLQMNSLKPEDTAIYYCAAARRGRAAVRSEGGYDFWGQGTQVTVSS
For B21, in the experiment with mouse IL-2Rβ (mouse), the P.E. binding ELISA OD is 0.047 OD450 nm.

B22: FJ1427 P035MP03H10 (VHH)
VHH: QVQLVESGGGLVQAGGSLRLSCAASGRTFSTTEMGWFRQAPGKEREFVAAITWTGRGTMYAESVEGRFTISRENAKNMVYLQMNSLKPEDTAIYYCAAARRGRAAVRSEGGYDFWGQGTQVTVSS
On to B22, for which, in the experiment with mouse IL-2Rβ (mouse), the P.E. binding ELISA OD is 0.049 OD450 nm.

B23: 33-MP04C09 (VHH)
VHH: QLQLVESGGGLVQAGGSLRLSCAASGPTFSRVAVGWFRQAPGKEREFVAAVNRPATMTKYADSVKGRFTVSRDNAKNTVDLQMNSMKPEDTAVYYCAADSVPYGRPYYWQTSAGDYDYWGQGTQVTVSS
B23 yielded an OD (PE binding ELISA) in the experiment with mouse IL-2Rγ (mouse) of 0.047 OD450 nm.

B24: FJ1427_P035MP03D10 (VHH)
VHH: QVQLQESGGGLVQAGDSLRLSCVVSGRDFSGYTMGWFRQPPGKEREFVALITWSTGRVHYTDSVEGRFTISRDSAKNTVYLQMNSLKPEDTAVYTCAAGRVGYTTNLHSYDYSGQGTQVIVSA
As for B24, the P.E. binding ELISA OD in the experiment with mouse IL-2Rβ (mouse) came out at 0.047 OD450 nm.

B25: FJ1427_P035MP03A09 (VHH)
VHH: QVQLVESGGGLVQAGGSLRLACAASGRTFSTLTMGWFRQAPGKEREFVAGISPSGGYAWHADSVKGRFTIDRDNAKNTVYLQTRSLRPEDTAVYYCAADHPPYGAVASRSEYEYDDWGPGTRVTVSS
B25 yielded a P.E. binding ELISA OD with mouse IL-2Rβ (mouse) of 0.049 OD450 nm.

B26: 29-MP04H02 (VHH)
VHH: QVQLVESGGGLVQAGGSLRLACVASGLTFDNYYMGWFRQAPGKEREFVAGIIWNGDHTAYADSIKGRFTISRDNAKNTAYLRMNSLKPEDTAVYYCAATFWIERATTPDIGQYAYWGQGTQVTVSS
Take B26: the OD (PE binding ELISA) with mouse IL-2Rγ (mouse) came to 0.05 OD450 nm.

B27: FJ1427_P035MP03E08 (VHH)
VHH: QVQLVESGGGLVQAGGSLRLSCAAAGRAIENYPVGWFRRAPGKEREFVAAITWISGSTLYADSVKGRFTISRDNAKNTVYLQMSSLKPEDTALYYCAAALKTITRGQNDYSYWGQGTQVTVSS
For B27, in the experiment with mouse IL-2Rβ (mouse), the P.E. binding ELISA OD worked out at 0.048 OD450 nm.

B28: FJ1427 P035MP03F09 (VHH)
VHH: EVQLVESGGGLVQAGGSLTLSCAASGRAFSNYPVGWFRQAPGKEREFVAAITWLSGSTLYADSVEGRFTISRDNAKNTVYLLMSSLKPEDTALYFCAAALKTITRGQNDYSYWGQGTQVTVSS
B28 gave a P.E. binding ELISA OD in the experiment with mouse IL-2Rβ (mouse) of 0.048 OD450 nm.

B29: FJ1427 P035MP06G01 (VHH)
VHH: EVQLVESGGGLVQAGDSLRLSCVVSGRGFSTYTMGWFRQAPGKEREFVAAITWSTGRTSYADSVKGRFTISRENAENTVYLQMNSLELEDTAVYYCATDQVLWTTRPRDMRYWGQGTQVTVSF
Turning to B29, the P.E. binding ELISA OD with mouse IL-2Rβ (mouse) was found to be 0.049 OD450 nm.
